PMC5490192, “An L-threonine transaldolase is required for L-threo-β-hydroxy-α-amino acid assembly during obafluorin biosynthesis” (Nature Communications, 2017)

T1: His6-ObaG (Pseudomonas fluorescens, UniProt A0A1X9LWZ7)
T1 construct: gene obiH
T1 sequence (A0A1X9LWZ7 1-440): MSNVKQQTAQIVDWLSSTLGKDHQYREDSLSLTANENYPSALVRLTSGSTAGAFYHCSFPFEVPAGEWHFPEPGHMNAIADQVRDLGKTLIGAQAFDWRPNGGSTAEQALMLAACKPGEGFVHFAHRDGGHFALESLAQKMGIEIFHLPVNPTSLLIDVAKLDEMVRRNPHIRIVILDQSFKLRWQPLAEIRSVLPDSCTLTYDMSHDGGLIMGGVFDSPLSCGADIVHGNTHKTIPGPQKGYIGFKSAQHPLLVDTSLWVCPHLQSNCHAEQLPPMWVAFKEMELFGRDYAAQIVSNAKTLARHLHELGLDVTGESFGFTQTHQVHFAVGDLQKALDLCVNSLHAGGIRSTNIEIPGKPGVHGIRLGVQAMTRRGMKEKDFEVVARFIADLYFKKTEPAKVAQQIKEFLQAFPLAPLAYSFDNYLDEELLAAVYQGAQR

B1: His6-ObaG (Pseudomonas fluorescens) (protein)
chain: T1 sequence (A0A1X9LWZ7 1-440)

Tests used:
[1] = molecular target: T1, His6-ObaG; assay: UV/Vis absorption spectra; NaBH4 reduction of internal aldimine; type: binding; conditions: covalent (internal aldimine); pH 7.8; excess PLP removed
[2] = substrate: C[C@@H](O)[C@H](N)C(=O)O; assay: discontinuous HPLC L-TTA assay, Michaelis-Menten fit; type: biochemical, Pseudomonas fluorescens; conditions: co-substrate 4-nitrophenylacetaldehyde (10 mM in standard assay), L-threonine 1–200 mM, 25 μM enzyme, pH 7.8, 27 °C, PLP 0.4 mM, MgCl2 15 mM, NaCl 300 mM

| Molecule | UV/Vis absorption spectra; NaBH4 reduction of internal aldimine [1] | Km [2] [mM] | kcat [2] [s⁻¹] |
| --- | --- | --- | --- |
| Cc1ncc(COP(=O)(O)O)c(C=O)c1O [pyridoxal-5′-phosphate] | these results strongly support ObaG being a PLP-dependent enzyme |  |  |
| B1 |  | 40.2 ± 3.8 | 1.05 ± 0.0317 |
